Literature values in publication PMC6322933.

Target: ZPI (Homo sapiens) (UniProt Q9UK55)
Chain of UniProt Q9UK55 (Q9UK55 22-444): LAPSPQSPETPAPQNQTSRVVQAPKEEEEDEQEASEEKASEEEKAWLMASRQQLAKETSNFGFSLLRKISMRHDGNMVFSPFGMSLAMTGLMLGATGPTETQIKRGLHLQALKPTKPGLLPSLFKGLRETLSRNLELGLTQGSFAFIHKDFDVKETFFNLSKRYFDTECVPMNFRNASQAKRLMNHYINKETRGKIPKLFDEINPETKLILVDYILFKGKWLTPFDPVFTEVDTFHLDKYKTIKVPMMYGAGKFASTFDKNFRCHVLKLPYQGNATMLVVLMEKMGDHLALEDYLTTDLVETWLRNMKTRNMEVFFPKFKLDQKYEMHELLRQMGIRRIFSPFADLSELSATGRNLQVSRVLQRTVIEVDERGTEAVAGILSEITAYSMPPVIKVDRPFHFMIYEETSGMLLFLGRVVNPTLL

For Protein Z (from UniProt P22891), the Kd is listed as 0.6 nM.
